Source: paper PMC5856539

Biological target: GFP-tagged Ska complex (Ska complex^Ska3-GFP) (human) (UniProt Q96BD8)
Assay: SEC-MALS

- stoichiometry N: 2
Substance: GFP-tagged Ska complex (Ska complex^Ska3-GFP) (from UniProt Q96BD8;Q8WVK7;Q8IX90)
